Measured values from PMC10943247.

Assays:
Assay in all cases: mass photometry; (N8-)CRL2^FEM1B wild type or mutant alone; 2 µL of 10 nM protein added to 18 μL of 50 mM HEPES pH 7.5, 150 mM NaCl
[1] = molecular target: CRL2^FEM1B complex with FEM1B^F549S, unneddylated (human) (UniProt Q13617)
[2] = molecular target: CRL2^FEM1B complex with FEM1B^F549R, unneddylated (human) (UniProt Q13617)
[3] = molecular target: CRL2^FEM1B complex with FEM1B^F549T, unneddylated (human) (UniProt Q13617)

With “CRL2^FEM1B complex with FEM1B^F549S, unneddylated (from UniProt Q13617 1-745; P62877 1-108; Q15370 1-104; Q15369 17-112; Q9UK73 1-627)” the stoichiometry N [1] was 2.
Work on “CRL2^FEM1B complex with FEM1B^F549R, unneddylated (from UniProt Q13617 1-745; P62877 1-108; Q15370 1-104; Q15369 17-112; Q9UK73 1-627)” yielded a stoichiometry N [2] of 2.
“CRL2^FEM1B complex with FEM1B^F549T, unneddylated (from UniProt Q13617 1-745; P62877 1-108; Q15370 1-104; Q15369 17-112; Q9UK73 1-627)” showed a stoichiometry N [3] of 2.
